Reference: patent US20240218079A1, “PLASMA KALLIKREIN ANTIBODIES AND USES THEREOF” (Astria Therapeutics, Inc., priority 2021, published 2024)

Assays:
Thrombin a = experiment: cell-based or functional assay
Hepsin = experiment: cell-based or functional assay

Chain of DX-2930 (antibody) (VH): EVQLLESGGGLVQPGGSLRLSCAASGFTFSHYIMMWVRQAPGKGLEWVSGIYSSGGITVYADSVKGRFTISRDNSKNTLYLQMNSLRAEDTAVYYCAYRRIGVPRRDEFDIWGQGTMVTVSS
Chain of DX-2930 (antibody) (VL): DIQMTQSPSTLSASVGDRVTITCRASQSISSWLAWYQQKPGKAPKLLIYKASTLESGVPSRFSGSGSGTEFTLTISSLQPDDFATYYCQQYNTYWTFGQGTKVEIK

DX-2930 (antibody)
> 1 µM: IC50, protease inhibition assay, fluorescent peptide substrate, Duplicate 1 (Thrombin a) | IC50, protease inhibition assay, fluorescent peptide substrate, Duplicate 2 (Thrombin a) | IC50, protease inhibition assay, fluorescent peptide substrate, Duplicate 1 (Hepsin) | IC50, protease inhibition assay, fluorescent peptide substrate, Duplicate 2 (Hepsin)
